Measurements taken from patent US20200283478A1 (Genentech, published 2020).

Target: T1, proprotein convertase subtilisin/kexin type 9 (PCSK9) (human, UniProt Q8NBP7 31-692)
T1 construct: His-tagged full-length PCSK9 in TR-FRET and SPR, biotinylated in phage ELISA; secreted protein is autoprocessed (prodomain plus catalytic/CRD chain starting at S153); also called rec.PCSK9; His-PCSK9
Assay: phage spot ELISA
Source text: The binding signal of the same phage particle to NeutrAvidin was considered as non-specific binding (“noise”).

T1 sequence (Q8NBP7 other isoform, or with tags, fused parts or gaps limits assumed): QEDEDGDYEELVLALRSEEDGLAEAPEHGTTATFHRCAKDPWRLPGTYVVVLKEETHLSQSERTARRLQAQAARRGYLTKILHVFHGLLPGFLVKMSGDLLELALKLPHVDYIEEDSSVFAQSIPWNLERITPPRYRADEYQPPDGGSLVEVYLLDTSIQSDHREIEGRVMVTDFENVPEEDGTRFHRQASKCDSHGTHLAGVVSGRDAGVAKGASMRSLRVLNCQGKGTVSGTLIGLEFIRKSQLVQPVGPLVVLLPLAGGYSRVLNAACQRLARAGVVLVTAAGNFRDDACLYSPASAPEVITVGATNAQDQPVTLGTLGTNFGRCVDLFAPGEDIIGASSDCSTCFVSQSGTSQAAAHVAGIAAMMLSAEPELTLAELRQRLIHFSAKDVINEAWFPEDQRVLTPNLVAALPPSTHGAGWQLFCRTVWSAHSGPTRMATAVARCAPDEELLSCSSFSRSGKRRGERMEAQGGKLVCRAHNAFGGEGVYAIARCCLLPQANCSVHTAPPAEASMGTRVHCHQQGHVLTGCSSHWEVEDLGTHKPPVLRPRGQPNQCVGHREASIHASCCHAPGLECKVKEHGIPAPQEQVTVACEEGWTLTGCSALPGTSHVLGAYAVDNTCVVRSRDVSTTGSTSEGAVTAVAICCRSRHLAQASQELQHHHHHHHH

Binder | ELISA | s/n ratio
TAFTSWEEYLDWVGSGSCSWNVERIRGCSV [SEQ ID NO 311] | 2.92 | 18.8
TAFTSWEEYLDWVGSGNCWSSLRGICENLG [SEQ ID NO 307] | 2.81 | 21.7
TAFTSWEEYLDWVGSGGCVKYRGSVSCQESKT [SEQ ID NO 323] | 2.85 | 18
TAFTSWEEYLDWVGSGCPFYDWRCSDFS [SEQ ID NO 328] | 2.8 | 25
TAFTSWEEYLDWVGSGGHPLWNLSRI [SEQ ID NO 316] | 2.73 | 25.7
TAFTSWEEYLDWVGSGVPWNLARL [SEQ ID NO 314] | 2.82 | 29.3
TAFTSWEEYLDWVGSGVPWNLAKI [SEQ ID NO 315] | 2.69 | 22.4
TAFTSWEEYLDWVGSGALWNMRRVESVAFR [SEQ ID NO 319] | 3.09 | 23.9
TAFTSWEEYLDWVGSGMVYVDRGVRVFT [SEQ ID NO 322] | 2.82 | 27.9
TAFTSWEEYLDWVGSGVVLWNHSRIL [SEQ ID NO 313] | 2.95 | 26.8
TAFTSWEEYLDWVGSGNPTYWLTRIS [SEQ ID NO 331] | 2.98 | 23.1
TAFTSWEEYLDWVGSGGPWNLNRV [SEQ ID NO 309] | 2.68 | 27.6
TAFTSWEEYLDWVGSGNVRCYRDVPSCS [SEQ ID NO 329] | 2.66 | 25.9
TAFTSWEEYLDWVGSGEDVVCYGRVDYMPLCV [SEQ ID NO 330] | 2.67 | 25.2
TAFTSWEEYLDWVGSGNELWNINRLRSS [SEQ ID NO 317] | 2.94 | 12
TAFTSWEEYLDWVGSGRGGYELNIPR [SEQ ID NO 326] | 2.93 | 26.1
TAFTSWEEYLDWVGSGKLWNLTRISS [SEQ ID NO 312] | 2.87 | 28.1
TAFTSWEEYLDWVGSGMPWNLARIER [SEQ ID NO 318] | 2.86 | 27.8
TAFTSWEEYLDWVGSGEHQFYSYRGVDVYR [SEQ ID NO 324] | 2.55 | 22.3
TVFTSWEEYLDWV (also called phage displaying Pep2-8) [phage-displayed Pep2-8 (on p8)] | 2.98 | 30
TAFTSWEEYLDWV [phage-displayed Pep2-8V2A] | 1.27 | 16.7
TAFTSWEEYLDWVGSGPLLWNLQKVH [SEQ ID NO 310] | 2.75 | 23.5
TAFTSWEEYLDWVGSGKLWNLGRV [SEQ ID NO 306] | 2.79 | 28.2
TAFTSWEEYLDWVGSGGEYLWNLKRLES [SEQ ID NO 320] | 2.84 | 28.7
TAFTSWEEYLDWVGSGKNNYAYLINMPRAPGI [SEQ ID NO 325] | 2.54 | 24.7
TAFTSWEEYLDWVGSGACLNHFVSGNMIRC [SEQ ID NO 327] | 2.87 | 26.1
TAFTSWEEYLDWVGSGPHSYWLDRVQ [SEQ ID NO 332] | 2.89 | 25.3

Target: T2, PCSK9Δhelix (human, Chemically biotinylated in the phage ELISAs; the site is not given.)
T2 construct: construct M1-Q692 with engineered TEV site, cleaved by TEV; also called His-PCSK9Δhelix; open groove PCSK9Δhelix
T2 sequence (prodomain, as listed by the source mutant limits assumed, chain 1 of 2): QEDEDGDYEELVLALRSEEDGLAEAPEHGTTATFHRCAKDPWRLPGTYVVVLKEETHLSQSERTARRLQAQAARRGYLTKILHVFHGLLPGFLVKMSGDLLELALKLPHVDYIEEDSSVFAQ
T2 sequence (chain, as listed by the source mutant limits assumed, chain 2 of 2): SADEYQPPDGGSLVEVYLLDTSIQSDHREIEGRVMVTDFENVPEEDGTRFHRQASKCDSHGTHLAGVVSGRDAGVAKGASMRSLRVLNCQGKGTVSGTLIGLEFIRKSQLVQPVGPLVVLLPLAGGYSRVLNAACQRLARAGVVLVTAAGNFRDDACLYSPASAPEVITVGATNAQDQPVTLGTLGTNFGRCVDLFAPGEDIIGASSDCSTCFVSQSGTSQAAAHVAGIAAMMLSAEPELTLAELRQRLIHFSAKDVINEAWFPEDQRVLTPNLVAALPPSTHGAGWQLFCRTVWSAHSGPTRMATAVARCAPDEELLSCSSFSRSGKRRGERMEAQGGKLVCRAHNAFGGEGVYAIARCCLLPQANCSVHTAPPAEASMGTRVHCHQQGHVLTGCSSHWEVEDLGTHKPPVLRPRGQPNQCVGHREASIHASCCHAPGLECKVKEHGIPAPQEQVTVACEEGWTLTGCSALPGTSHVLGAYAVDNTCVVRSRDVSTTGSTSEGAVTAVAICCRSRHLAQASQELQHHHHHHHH
Assay: phage spot ELISA

Binder | ELISA | s/n ratio
TAFTSWEEYLDWVGSGSCSWNVERIRGCSV [SEQ ID NO 311] | 2.83 | 26
TAFTSWEEYLDWVGSGNCWSSLRGICENLG [SEQ ID NO 307] | 2.91 | 22.5
TAFTSWEEYLDWVGSGGCVKYRGSVSCQESKT [SEQ ID NO 323] | 2.73 | 24.2
TAFTSWEEYLDWVGSGCPFYDWRCSDFS [SEQ ID NO 328] | 2.78 | 26.5
TAFTSWEEYLDWVGSGGHPLWNLSRI [SEQ ID NO 316] | 2.6 | 9.12
TAFTSWEEYLDWVGSGVPWNLARL [SEQ ID NO 314] | 2.68 | 27.3
TAFTSWEEYLDWVGSGVPWNLAKI [SEQ ID NO 315] | 2.67 | 24.1
TAFTSWEEYLDWVGSGALWNMRRVESVAFR [SEQ ID NO 319] | 3.04 | 20.1
TAFTSWEEYLDWVGSGMVYVDRGVRVFT [SEQ ID NO 322] | 2.71 | 25.1
TAFTSWEEYLDWVGSGVVLWNHSRIL [SEQ ID NO 313] | 2.96 | 26.6
TAFTSWEEYLDWVGSGNPTYWLTRIS [SEQ ID NO 331] | 3.02 | 28
TAFTSWEEYLDWVGSGGPWNLNRV [SEQ ID NO 309] | 2.7 | 29.3
TAFTSWEEYLDWVGSGNVRCYRDVPSCS [SEQ ID NO 329] | 2.68 | 26.3
TAFTSWEEYLDWVGSGEDVVCYGRVDYMPLCV [SEQ ID NO 330] | 2.7 | 24.8
TAFTSWEEYLDWVGSGNELWNINRLRSS [SEQ ID NO 317] | 2.76 | 13.2
TAFTSWEEYLDWVGSGRGGYELNIPR [SEQ ID NO 326] | 2.69 | 18.8
TAFTSWEEYLDWVGSGKLWNLTRISS [SEQ ID NO 312] | 2.69 | 25.8
TAFTSWEEYLDWVGSGMPWNLARIER [SEQ ID NO 318] | 3 | 30.3
TAFTSWEEYLDWVGSGEHQFYSYRGVDVYR [SEQ ID NO 324] | 2.66 | 26.2
TVFTSWEEYLDWV (also called phage displaying Pep2-8) [phage-displayed Pep2-8 (on p8)] | 2.1 | 21.8
TAFTSWEEYLDWV [phage-displayed Pep2-8V2A] | 0.07 | 1.07
TAFTSWEEYLDWVGSGPLLWNLQKVH [SEQ ID NO 310] | 2.76 | 24.4
TAFTSWEEYLDWVGSGKLWNLGRV [SEQ ID NO 306] | 2.62 | 8.55
TAFTSWEEYLDWVGSGGEYLWNLKRLES [SEQ ID NO 320] | 2.94 | 26
TAFTSWEEYLDWVGSGKNNYAYLINMPRAPGI [SEQ ID NO 325] | 2.54 | 29.1
TAFTSWEEYLDWVGSGACLNHFVSGNMIRC [SEQ ID NO 327] | 1.38 | 8.17
TAFTSWEEYLDWVGSGPHSYWLDRVQ [SEQ ID NO 332] | 2.68 | 24.6

Target: T1, proprotein convertase subtilisin/kexin …
Assay: phage spot ELISA
Remark: another data set of the same source

Binder | ELISA | s/n ratio
TAFTSWEEYLDWVGSGRCESKGWANTCVSE [SEQ ID NO 362] | 2.98 | 20.7
TAFTSWEEYLDWVGSGPTSGLTPS [SEQ ID NO 361] | 2.66 | 27.5
TAFTSWEEYLDWVGSGQVTSLPQA [SEQ ID NO 363] | 2.46 | 27.9
TAFTSWEEYLDWVGSGRCGLAWCVVLVDQ [SEQ ID NO 365] | 2.62 | 20.8
TAFTSWEEYLDWVGSGRGGYELNIPR [SEQ ID NO 326] | 3.13 | 29.8

Target: T2, PCSK9Δhelix
Assay: phage spot ELISA
Remark: another data set of the same source

Binder | ELISA | s/n ratio
TAFTSWEEYLDWVGSGRCESKGWANTCVSE [SEQ ID NO 362] | 2.56 | 15.8
TAFTSWEEYLDWVGSGPTSGLTPS [SEQ ID NO 361] | 0.127 | 1.3
TAFTSWEEYLDWVGSGQVTSLPQA [SEQ ID NO 363] | 0.11 | 1.21
TAFTSWEEYLDWVGSGRCGLAWCVVLVDQ [SEQ ID NO 365] | 2.8 | 28.5
TAFTSWEEYLDWVGSGRGGYELNIPR [SEQ ID NO 326] | 2.92 | 25.6
